Measurements reported in patent publication US7067619 (LA JOLLA CANCER RESEARCH FOUNDATION, dated 2006).
Ends that are not written are not given here.

B1: CRGDSFVGC phage (peptide)
peptide: CRGDSFVGC
notes: on fuse 5 phage, fused to pIII
B2: CLVLPSTGC phage (peptide)
peptide: CLVLPSTGC
notes: as for B1
B3: CRGDAWPGC phage (peptide)
peptide: CRGDAWPGC
notes: as for B1
B4: CSRGDGAIC phage (peptide)
peptide: CSRGDGAIC
notes: as for B1
B5: CPDLLAQSC phage (peptide)
peptide: CPDLLAQSC
notes: as for B1
B6: CWSISPYFC phage (peptide)
peptide: CWSISPYFC
notes: as for B1
B7: CARRLDAPC phage (peptide)
peptide: CARRLDAPC
notes: as for B1
B8: CRGDTVYAC phage (peptide)
peptide: CRGDTVYAC
notes: as for B1
B9: CRGDKGWNC phage (peptide)
peptide: CRGDKGWNC
notes: as for B1
B10: CKTPGRLDC phage (peptide)
peptide: CKTPGRLDC
notes: as for B1
B11: CFRGDDRKC phage (peptide)
peptide: CFRGDDRKC
notes: as for B1
B12: CRGDGIRFC phage (peptide)
peptide: CRGDGIRFC
notes: as for B1
B13: CRGDLAWVC phage (peptide)
peptide: CRGDLAWVC
notes: as for B1
B14: CNRRGDNWGC phage (peptide)
peptide: CNRRGDNWGC
notes: as for B1
B15: CYSLGFLVC phage (peptide)
peptide: CYSLGFLVC
notes: as for B1
B16: CRGDHGTLC phage (peptide)
peptide: CRGDHGTLC
notes: as for B1
B17: CRGDNTFGC phage (peptide)
peptide: CRGDNTFGC
notes: as for B1
B18: CRGDSHLQC phage (peptide)
peptide: CRGDSHLQC
notes: as for B1
B19: CQARGDRPRC phage (peptide)
peptide: CQARGDRPRC
notes: as for B1
B20: CGRGDTPTC phage (peptide)
peptide: CGRGDTPTC
notes: as for B1
B21: CQGRGDTFYC phage (peptide)
peptide: CQGRGDTFYC
notes: as for B1
B22: CHTRGDTFC phage (peptide)
peptide: CHTRGDTFC
notes: as for B1
B23: CWTRGDSFC phage (peptide)
peptide: CWTRGDSFC
notes: as for B1
B24: CDLRGDTYC phage (peptide)
peptide: CDLRGDTYC
notes: as for B1
B25: CQSRGDDFSC phage (peptide)
peptide: CQSRGDDFSC
notes: as for B1
B26: CDSVLRVFC phage (peptide)
peptide: CDSVLRVFC
notes: as for B1
B27: CVTRGDSFSC phage (peptide)
peptide: CVTRGDSFSC
notes: as for B1
B28: CVVRGDTFC phage (peptide)
peptide: CVVRGDTFC
notes: as for B1
B29: CEMRGDTFC phage (peptide)
peptide: CEMRGDTFC
notes: as for B1
B30: CYARGDSFC phage (peptide)
peptide: CYARGDSFC
notes: as for B1
B31: CLCRGDCIC phage (peptide)
peptide: CLCRGDCIC
modifications: not fully specified (bridges); also: two disulfide bonds, pairing not given here
notes: as for B1
B32: CAHRGDTPQC phage (peptide)
peptide: CAHRGDTPQC
notes: as for B1
B33: CEGRGDSFC phage (peptide)
peptide: CEGRGDSFC
notes: as for B1
B34: CEPRGDSFC phage (peptide)
peptide: CEPRGDSFC
notes: as for B1
B35: CRGDTYLIC phage (peptide)
peptide: CRGDTYLIC
notes: as for B1
B36: CLVRGDSLC phage (peptide)
peptide: CLVRGDSLC
notes: as for B1
B37: CISRGDTFC phage (αvβ5 selection) (peptide)
peptide: CISRGDTFC
notes: as for B1
B38: CAPRGDHFAC phage (peptide)
peptide: CAPRGDHFAC
notes: as for B1
B39: CPRRGDTFSC phage (peptide)
peptide: CPRRGDTFSC
notes: as for B1
B40: CRGDVFLC phage (peptide)
peptide: CRGDVFLC
notes: as for B1
B41: CVRRGDVFC phage (peptide)
peptide: CVRRGDVFC
notes: as for B1
B42: CVSRGDTPKC phage (peptide)
peptide: CVSRGDTPKC
notes: as for B1
B43: CTQRGDNFFC phage (peptide)
peptide: CTQRGDNFFC
notes: as for B1
B44: CGRRGDVPRC phage (peptide)
peptide: CGRRGDVPRC
notes: as for B1
B45: CLHPNVRSC phage (peptide)
peptide: CLHPNVRSC
notes: as for B1
B46: CIRRGDTFGC phage (peptide)
peptide: CIRRGDTFGC
notes: as for B1
B47: CRGDCCQSC phage (peptide)
peptide: CRGDCCQSC
notes: as for B1
B48: CELRGDSAC phage (peptide)
peptide: CELRGDSAC
notes: as for B1
B49: CVTRGDNFC phage (peptide)
peptide: CVTRGDNFC
notes: as for B1
B50: CVLRGDNFC phage (peptide)
peptide: CVLRGDNFC
notes: as for B1
B51: CDCRGDCLC phage (peptide)
peptide: CDCRGDCLC
modifications: not fully specified (bridges); also: two disulfide bonds, pairing not given here
notes: as for B1
B52: CQVRGDQFAC phage (peptide)
peptide: CQVRGDQFAC
notes: as for B1

Target: T1, αvβ3 integrin isolated from human placental extract (human, UniProt P06756 31-1048; P05106 27-788)
T1 construct: isolated on GRGDSPK-Sepharose; said to be primarily αvβ3
Assay: phage panning on coated integrin
Method: (§1) In the first panning, the integrins were coated at 5 µg per well, and the library pool was incubated for 4 hours at 25° C. in TBS buffer containing 1% bovine serum albumin and 1 mM MnCl_2 (α_5β_1, α_vβ_3) 1 mM MgCl_2 ($\alphaIIb\beta_3$) or 1 mM CaCl_2 (α_vβ_5).

T1 sequence (P06756 31-1048, chain 1 of 2): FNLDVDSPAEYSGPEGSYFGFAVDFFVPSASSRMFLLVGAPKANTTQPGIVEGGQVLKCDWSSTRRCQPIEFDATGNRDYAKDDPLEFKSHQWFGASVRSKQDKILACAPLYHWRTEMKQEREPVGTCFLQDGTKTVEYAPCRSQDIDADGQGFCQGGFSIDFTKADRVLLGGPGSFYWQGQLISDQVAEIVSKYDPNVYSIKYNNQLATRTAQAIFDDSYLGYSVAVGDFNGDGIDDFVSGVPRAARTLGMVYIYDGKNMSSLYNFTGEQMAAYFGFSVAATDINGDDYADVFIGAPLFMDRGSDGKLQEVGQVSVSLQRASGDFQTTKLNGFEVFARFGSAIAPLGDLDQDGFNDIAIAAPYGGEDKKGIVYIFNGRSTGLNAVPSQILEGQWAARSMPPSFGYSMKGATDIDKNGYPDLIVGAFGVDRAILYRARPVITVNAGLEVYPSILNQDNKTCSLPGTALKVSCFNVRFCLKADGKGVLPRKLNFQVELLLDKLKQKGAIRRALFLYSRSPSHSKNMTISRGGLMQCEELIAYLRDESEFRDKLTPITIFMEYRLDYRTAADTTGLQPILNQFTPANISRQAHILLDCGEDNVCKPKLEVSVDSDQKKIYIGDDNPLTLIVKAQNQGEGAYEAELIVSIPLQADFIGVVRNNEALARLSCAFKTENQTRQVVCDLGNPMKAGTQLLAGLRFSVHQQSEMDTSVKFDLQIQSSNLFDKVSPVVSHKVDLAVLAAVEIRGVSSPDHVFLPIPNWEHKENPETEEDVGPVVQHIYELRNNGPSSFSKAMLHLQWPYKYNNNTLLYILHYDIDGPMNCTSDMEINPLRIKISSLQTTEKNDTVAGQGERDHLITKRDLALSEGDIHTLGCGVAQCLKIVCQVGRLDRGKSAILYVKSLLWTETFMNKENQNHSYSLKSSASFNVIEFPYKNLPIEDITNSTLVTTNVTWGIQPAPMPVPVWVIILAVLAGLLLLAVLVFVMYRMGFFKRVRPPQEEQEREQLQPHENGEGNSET
T1 sequence (P05106 27-788, chain 2 of 2): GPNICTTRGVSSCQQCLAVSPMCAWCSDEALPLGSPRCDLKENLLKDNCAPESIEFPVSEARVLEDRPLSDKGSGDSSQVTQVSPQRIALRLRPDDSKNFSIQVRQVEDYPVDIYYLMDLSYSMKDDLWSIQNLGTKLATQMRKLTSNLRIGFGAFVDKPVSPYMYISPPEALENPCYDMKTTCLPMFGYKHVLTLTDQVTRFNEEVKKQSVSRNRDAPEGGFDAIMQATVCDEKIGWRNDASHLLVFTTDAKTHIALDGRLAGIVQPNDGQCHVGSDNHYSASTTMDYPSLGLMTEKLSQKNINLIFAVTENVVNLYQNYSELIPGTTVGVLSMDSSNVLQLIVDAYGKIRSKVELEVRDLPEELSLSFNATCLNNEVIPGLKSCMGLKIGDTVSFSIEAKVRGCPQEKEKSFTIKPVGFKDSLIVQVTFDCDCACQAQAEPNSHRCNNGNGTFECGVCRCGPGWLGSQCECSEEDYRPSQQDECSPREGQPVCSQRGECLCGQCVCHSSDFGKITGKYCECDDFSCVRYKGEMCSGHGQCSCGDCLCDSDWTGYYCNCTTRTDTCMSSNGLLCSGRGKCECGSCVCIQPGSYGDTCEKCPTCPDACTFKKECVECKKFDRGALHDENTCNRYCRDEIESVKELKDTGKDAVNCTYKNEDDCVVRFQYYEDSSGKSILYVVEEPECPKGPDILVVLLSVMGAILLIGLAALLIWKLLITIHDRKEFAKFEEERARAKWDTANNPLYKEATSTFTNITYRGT

Binder	binding result
B1	binds
B2	binds
B3	binds
B4	binds
B5	binds
B6	binds
B7	binds
B8	binds
B9	binds
B10	binds
B11	binds
B12	binds
B13	binds
B14	binds
B15	binds
B16	binds
B17	binds
B18	binds
B19	binds

Target: αvβ5 integrin isolated from human placental extract (human, UniProt P06756 31-1048; P18084 24-799)
Assay: phage panning on coated integrin
Method: as §1

Sequence of αvβ5 integrin isolated from human placental extract (P06756 31-1048, chain 1 of 2): as the sequence (P06756 31-1048, chain 1 of 2) above
Sequence of αvβ5 integrin isolated from human placental extract (P18084 24-799, chain 2 of 2): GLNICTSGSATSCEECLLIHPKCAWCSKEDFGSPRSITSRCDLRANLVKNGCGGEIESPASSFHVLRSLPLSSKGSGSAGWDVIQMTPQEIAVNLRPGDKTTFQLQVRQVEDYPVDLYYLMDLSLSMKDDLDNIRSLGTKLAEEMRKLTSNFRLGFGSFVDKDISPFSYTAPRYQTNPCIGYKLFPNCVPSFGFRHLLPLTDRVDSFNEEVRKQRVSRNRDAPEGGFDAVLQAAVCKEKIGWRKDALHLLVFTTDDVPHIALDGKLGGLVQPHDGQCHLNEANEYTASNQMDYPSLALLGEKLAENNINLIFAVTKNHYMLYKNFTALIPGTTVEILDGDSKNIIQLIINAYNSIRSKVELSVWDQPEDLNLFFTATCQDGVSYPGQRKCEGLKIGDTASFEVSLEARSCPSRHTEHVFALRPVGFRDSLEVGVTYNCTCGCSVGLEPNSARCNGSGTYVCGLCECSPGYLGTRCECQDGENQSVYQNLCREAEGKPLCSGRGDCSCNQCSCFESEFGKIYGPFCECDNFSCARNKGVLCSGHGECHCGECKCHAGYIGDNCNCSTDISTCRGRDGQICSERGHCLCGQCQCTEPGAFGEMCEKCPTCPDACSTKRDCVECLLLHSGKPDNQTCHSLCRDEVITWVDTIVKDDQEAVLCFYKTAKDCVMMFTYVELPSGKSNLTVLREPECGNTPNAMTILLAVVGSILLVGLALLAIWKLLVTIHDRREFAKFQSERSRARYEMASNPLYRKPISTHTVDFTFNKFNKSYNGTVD

Binder	binding result
B20	binds
B21	binds
B22	binds
B23	binds
B24	binds
B25	binds
B26	binds
B27	binds
B28	binds
B29	binds
B30	binds
B31	binds
B32	binds
B33	binds
B34	binds
B35	binds
B36	binds

Binder	binding result
B37	binds
B38	binds
B39	binds
B40	binds
B41	binds
B42	binds
B43	binds
B44	binds
B45	binds
B46	binds
B47	binds
B48	binds
B49	binds
B50	binds
B51	binds
B52	binds
